Assay results from publication PMC2586299 (Developmental cell, 2008).
Changes are numbered by the printed parent chain.

T1: GST-CHMP6 (construct of the VPS4B measurement not stated) (human, UniProt Q96FZ7 1-201)
T1 sequence (looked up): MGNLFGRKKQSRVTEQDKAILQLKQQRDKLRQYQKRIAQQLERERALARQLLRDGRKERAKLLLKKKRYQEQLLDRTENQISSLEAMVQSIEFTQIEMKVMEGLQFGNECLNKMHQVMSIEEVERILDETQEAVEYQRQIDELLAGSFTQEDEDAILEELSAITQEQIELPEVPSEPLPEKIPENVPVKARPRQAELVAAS

T2: full length GST-CHMP6_(1−201) (human, UniProt Q96FZ7 1-201)
T2 sequence (looked up): T1 sequence (looked up)

T3: GST-CHMP6 without the final 20 residues (human, UniProt Q96FZ7 1-181)
T3 sequence (looked up): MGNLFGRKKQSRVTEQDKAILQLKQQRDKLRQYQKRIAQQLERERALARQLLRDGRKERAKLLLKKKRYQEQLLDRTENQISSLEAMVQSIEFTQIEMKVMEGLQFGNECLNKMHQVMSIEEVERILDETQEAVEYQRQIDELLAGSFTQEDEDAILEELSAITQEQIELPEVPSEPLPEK

T4: VPS4A MIT_(L64D) (human, UniProt Q9UN37 1-84, L64D)
T4 sequence (looked up): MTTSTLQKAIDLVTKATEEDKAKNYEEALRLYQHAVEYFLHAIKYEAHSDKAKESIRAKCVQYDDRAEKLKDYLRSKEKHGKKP

B1: VPS4B MIT domain (domain or fragment, human, UniProt O75351 4-82, looked up)
chain: TSPNLQKAIDLASKAAQEDKAGNYEEALQLYQHAVQYFLHVVKYEAQGDKAKQSIRAKCTEYLDRAEKLKEYLKNKEKK
B2: VPS4A MIT domain (VPS4A residues 1−84) (domain or fragment, human, UniProt Q9UN37 1-84, looked up)
chain: T4 sequence (looked up) with D64L

Tests used:
[1] = biological target: T1, GST-CHMP6 (construct of the VPS4B …); experiment: SPR
[2] = biological target: T2, full length GST-CHMP6_(1−201); experiment: SPR
[3] = biological target: T3, GST-CHMP6 without the final 20 residues; experiment: SPR
[4] = biological target: CHMP6 MIM2 L178D (human); experiment: SPR
[5] = biological target: B2; experiment: SPR
[6] = biological target: T4, VPS4A MIT_(L64D); experiment: SPR
[7] = biological target: B2; experiment: NMR solution structure

With B1 the Kd [1] was 786 ± 6 µM.

B2 gave a Kd [2] of 33 ± 7 µM, a Kd [3] of 23.2 ± 0.2 µM and a Kd [4] of 44.4 µM.

LPEVPSEPLPEK (domain or fragment, human, UniProt Q96FZ7 170-181, looked up) [GST-CHMP6_(170−181) minimal fragment] gave a Kd [5] of 8 ± 0.1 µM.

For QEQIELPEVPSEPLPEK (domain or fragment, human, UniProt Q96FZ7 165-181, looked up) [GST-CHMP6_(165−181) fragment], the Kd [6] was 26.1 ± 0.8 µM and the Kd [5] was 5.8 ± 0.8 µM.

EQIELPEVPSEPLPEK (peptide, UniProt Q96FZ7 166-181, looked up) [CHMP6_(166−181) MIM2 peptide]: binds [7].
